According to the supplement of paper PMC9170038:

Tested on: MS2 coat protein
Assay: apparent KD of MS2 coat protein; designed switch direction (-1 OFF switch, 1 ON switch): 1; higher = weaker reporter binding
Method in brief: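 For each design, the apparent KD is the median over clusters of curves fitted to normalised cluster fluorescence. Clusters held RNA switches with common flanks, transcribed on Illumina chips by stalled E. coli RNA polymerase. These were titrated with SNAP-549-labelled MS2 coat protein, doubling from 0.7 or 1.5 nM to 3 µM, without input, with 200 uM small-molecule ligand, or with an oligonucleotide input.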

[1] = Eterna round: R95, input ligand: FMN 200 uM
[2] = Eterna round: R95, input ligand: microRNA oligo, concentration not stated
[3] = Eterna round: R95, input ligand: none
[4] = input ligand: microRNA oligo, concentration not stated

Row | Sequence | apparent KD of MS2 coat protein [1] [nM] | apparent KD of MS2 coat protein [2] [nM] | apparent KD of MS2 coat protein [3] [nM] | apparent KD of MS2 coat protein (input ligand: FMN 200 uM) [nM] | apparent KD of MS2 coat protein [4] [nM] | apparent KD of MS2 coat protein (input ligand: none) [nM]
1 | UCUUGGUUUUUGCUCGUUUUUUGUGUUGAACAUGAGGAUCACCCAUGUAUUGUACGAUCCAGUUAGAUGGUGGUUUG [JR_SHM208A_Sub044] (puzzle: Sensor for hsa-mir-208a) | 63.1 | 70.1 | 91.9 |  |  | 
2 | CUUGAUACACAUGAGGAUCACCCAUGUAUCAAGCUUUUUGCUCGUGUUAUUAUUUCCUUUAUUAGGAAUAUUAGGAA [rhiju-sequester-tail] (puzzle: Sensor for hsa-mir-208a version 2) | 24.9 | 14.4 | 23.7 |  |  | 
3 | AGUCCAGCAUGAGCUGGACAAAAGCAUGUACAUGAGGAUCACCCAUGUUCAUGUACAAGCUUUUUGCUCGUCUUAAU [Mat - hsa-mir-208a - Mod of JL - 61] (puzzle: Sensor for hsa-mir-208a) | 549 | 15.9 | 698 |  |  | 
4 | AGUCCAGCCUGAGCUGGACAAAAGCAUGUACAUGAGGAUCACCCAUGUCAUGUGCAAGCUUUUUGCUCGUCUUAAAA [Zipper 46 - 6] (puzzle: Sensor for hsa-mir-208a) | 61 | 11.6 | 67.9 |  |  | 
5 | AAGAAAUCCGCAGGAUAUCCUAAGCCGGGCUUAGGAGAAGGGUGGCCACAUGAGGAUCACCCAUGUAAAGGCUGAAUCACAGCC [Disois] (Eterna round: R96, puzzle: Same State NG 1) |  |  |  | 662 | 268 | 491
6 | UAUUAAUCUGUAGGAUAUCUAGGAUAUGGACGAGGAUCACCCGAGCAGCAUCAGCGCACCAGAGGAGAGAAGGACGCUCUGGUG [pwkr ssNG2 2F5 2FMN.25] (Eterna round: R96, puzzle: Same State NG 2) |  |  |  | 332 | 93.7 | 469
7 | UCUUGGUUUUUGCUCGUUUUUUGUGUUGAACAUGAGGAUCACCCAUGUAUUGUACAAUCCAAUUUAAUAAUGGUCCG [JMF 48] (puzzle: Sensor for hsa-mir-208a) | 74.7 | 81.7 | 94 |  |  | 
8 | GGAGCCGGCACUGAGGAUAUUCAUAUUAAAACAUGAGGAUCACCCAUGUAGGCCAGAAGGCCUUGGGAGAAGGCGGGUCGGCCCG [Bibimoar - 3] (Eterna round: R96, puzzle: Same State 2) |  |  |  | 22.1 | 222 | 258
9 | GUGGUCAGACAUGAGGAUCACCCAUGUGGAAUAAAUAACAGACAGGAUAUUUAAUAUAGGAUAUAAAAGAAGGGUCGAUUGGUG (Eterna round: R96, puzzle: Same State NG 3) |  |  |  | 110 | 98.9 | 116
10 | GGAGAGAGAGCGGAGGAUAUUCAAGGAGAGACAUGAGGAUCACCCAUGUAAGAGAGAGAGGAGAGGAAGAAGGCUGAGAGAGAGG [Altered State 2-10 - Jieux - Same State 2] (puzzle: Same State 2) | 32.1 | 26.9 | 42.8 |  |  | 
11 | AUAGUUGCCGAAGGAUAUGAUGAGGAUCACCCAUCAGAAGGUCGGCUAUUGGGUGGACAUGAGGAUCACCCGUGUUCUUUGGUC (Eterna round: R96, puzzle: Same State NG 1) |  |  |  | 30.6 | 22.5 | 32.3
12 | UUAAUGAUGAAAGGAUAUACAUGAGGAAUUCUCGUAGAAGGUUCAUGACAUGAGGAUCACCCAUGUAUCGCUCCGUAGAGCGUA [JL SSNG1 1.13] (Eterna round: R96, puzzle: Same State NG 1) |  |  |  | 713 | 38.4 | 82.6
13 | GGAUGAUUAAUAGGAUAUUAGUUGUAAAAUGUUUAAGAAGGAUUAAUGAUUUAAACGACCAGUUACAUGAGGAUCACCCAUGUU [JR_SSNG1_Sub093] (Eterna round: R96, puzzle: Same State NG 1) |  |  |  |  | 20.6 | 
14 | GAGAGAGGGUGAGGAUAUUCAGUAAUAAUGAUAGAAGAAGGCACAGACAUGAGGAUCACCCAUGUGGGAAUAAUCCAGAGAGAG [Parity 3 - Jieux - Same State NG 1] (Eterna round: R96, puzzle: Same State NG 1) |  |  |  |  | 158 | 
15 | UAUUGUUCCUGAGGAUAUCAGUUGUUUGCAUUAUGAGAAGGCAGUACAUGAGGAUCACCCAUGUUGGGAUUUGAUAGAAUGAUA [JR_SSNG1_Sub007] (Eterna round: R96, puzzle: Same State NG 1) |  |  |  |  | 133 | 
16 | AAAACAUGACGAGGAUAUGGUACAUGAGGAUCACCCAUGUAUGUACCACGACGCGUACGUCGAAUCCAGAAGGCGUCGUGAAAA [Mat - Same State NG 2 - JL mod - D19] (Eterna round: R96, puzzle: Same State NG 2) |  |  |  | 20.3 | 68.5 | 74.1

Row | Sequence | apparent KD of MS2 coat protein [1] [nM] | apparent KD of MS2 coat protein [2] [nM] | apparent KD of MS2 coat protein [3] [nM] | apparent KD of MS2 coat protein (input ligand: FMN 200 uM) [nM] | apparent KD of MS2 coat protein [4] [nM] | apparent KD of MS2 coat protein (input ligand: none) [nM]
17 | GCUCGGCUGAUGGCCCACAUGAGGAUCACCCAUGUGACUGGGCAGGAUAUCUAGAUUCAGGAUGUAGAGAAGGGCCUGCCGAGC [SameState NG3 #40] (Eterna round: R96, puzzle: Same State NG 3) |  |  |  | 331 | 77.3 | 188
18 | AGUCCAGCCUGAGCUGGACAAAAGCAUGUACAUGAGGAUCACCCAUGUUCAUGUACAAGCUUUUUGCUCGUCUUUAA [salish99_208a_r3_096x] (puzzle: Sensor for hsa-mir-208a) | 658 | 14.5 | 985 |  |  | 
19 | GGGCAGAGGGACAAGGAUAUGUCAGGAGAGACAUGAGGAUCACCCAUGUGGAGGUUGGAGCAGAGACAGAAGGUGUACGGAGCGA [JR_SS2_Sub011] (puzzle: Same State 2) | 34.4 | 105 | 107 |  |  | 
20 | AGGCCAUCGGGAGGAUAUGGCACCUUAUUGGUGCCAGAAGGUCCAACAUGAGGAUCACCCAUGUGGGAGUGGUCUAAUGACCAC [Fiskers NG1(ss) - 4] (Eterna round: R96, puzzle: Same State NG 1) |  |  |  | 64.3 | 58.1 | 64
21 | GAGUAGUUGGGAGGAUAUGCAUUGUUAUUAAAUGCAGAAGGUUUUAACAUGAGGAUCACCCAUGUAGGACUAUUCCUGUGUAUC [Parity 70 - Jieux - Same State NG 1] (Eterna round: R96, puzzle: Same State NG 1) |  |  |  | 17.3 | 13.7 | 17.1
22 | GACAAUCUAUCUGAGGAUAUCAUGAAGAAAACAUGAGGAUCACCCAUGUGCAGGAUAACUGCAAAUGAGAAGGCAGAUAGAUUGG [Mat - Same State 2 - Mod - D3] (puzzle: Same State 2) | 10.9 | 16.8 | 20 |  |  | 
23 | UUGAAGAAUUAAGGAUAUCGAGUCGUCAAAUUAAACAUGAGGAUCACCCAUGUGGGUUGCGGUAUCGAGAAGGUAAAUUACUAG [JL JR Sub099 mod 4] (Eterna round: R96, puzzle: Same State NG 2) |  |  |  | 11.9 | 15.2 | 32.3
24 | AUUAAUAAUGCAGGAUAUGAUUAACAUGAGGAUCACCCAUGUGGUGUUGUGAGUAAGGAGAGUGAUCAGAAGGGCAUUUUUUUU [JMF's solution 27] (Eterna round: R96, puzzle: Same State NG 2) |  |  |  | 552 | 374 | 385
25 | GUAAAACAUGAGGAUCACCCAUGUCAACAAAGUCGAGGAUAUGGGCAAAUAAAAUAAGAACCAGAAGGCGAAUAAC [salish99_SS1_r3_010] (puzzle: Same State 1) | 45.8 | 377 | 371 |  |  | 
26 | AACAAUCUAUCUGAGGAUAUCAUGAAAUAAACAUGAGGAUCACCCAUGUGCAGGUAAACUGCAUAUGAGAAGGCAGAUAGAUUGA [salish99_ss2_r3_040] (puzzle: Same State 2) | 60.1 | 314 | 571 |  |  | 
27 | CGACUAAAGUCACAGGAUAUACGCCGUACUACAUGAGGAUCACCCAUGUUCGGGACAGUCGCGGUGUAGAAGGGUGUGGGUCAAC [Errabeed] (puzzle: Same State 2) | 17.6 | 31.2 | 38.9 |  |  | 
28 | UGCCUGUCCGAAGGAUAUCUCAGCGAUCUUUUGGGAGAAGGUCGGAUGCAACAUGAGGAUCACCCAUGUGUAUAUAUCGCUGAC [Eternabot solution 48] (Eterna round: R96, puzzle: Same State NG 1) |  |  |  | 17.7 | 13.9 | 20.1
29 | UCGAGCGUACUUGCAGACAUGAGGAUCACCCAUGUAAAUGGGAAGGAUAUGGUACCGUUUCGGUACCAGAAGGUCCUAGGUGCU [salish99_SSNG3_r04_306] (Eterna round: R96, puzzle: Same State NG 3) |  |  |  | 250 | 327 | 1290
30 | UUAAUGAUGAUAGGAUAUACAUGAGGAAUCCUCGUAGAAGGAUCAUGACAUGAGGAUCACCCAUGUAACGCUCAGAAGAGCGUA [Mat - Same State NG 1 - JL mod - D42] (Eterna round: R96, puzzle: Same State NG 1) |  |  |  | 205 | 37 | 78.3
31 | GUUACAUGAGGAUCACCCAUGUAUGUGUGGGAGUAAGUGUCUUAGGAUAUCUAUUAUUUAAGUUAAGAGAAGGAAGAUUGUUGU [JMF's solution 23] (Eterna round: R96, puzzle: Same State NG 3) |  |  |  | 121 | 94.7 | 114
